Results from the supplement of paper PMC10567573.

B1: ZNF263 (parent)
chain: VPGTQVGQGGKLWDPSVQSCKEGL

Variants of: B1
Assay: protein stability index of a GFP-peptide fusion (GPS, HEK-293T) (PSI 1-6); higher = more stable
Conditions: c terminus: a fixed tail appended
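Note: lentivirally expressed fusions sorted by FACS into six bins by GFP to DsRed ratio, PSI derived from sequencing read proportions per bin multiplied by bin number.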

Variant | protein stability index
VPGTQVGQGGKLWDPSVQNCKEGL [S19N] | 4.39
VPGTQVGQGGKLWDPSVQVCKEGL [S19V] | 4.31
VPGTQVGQGGKLWDPSVQMCKEGL [S19M] | 3.69
VPGTQVGQGGKLWDPSVQQCKEGL [S19Q] | 4.3
VPGTQVGQGGKLWDPSVQPCKEGL [S19P] | 4.33
VPGTQVGQGGKLWDPSVQRCKEGL [S19R] | 3.89
VPGTQVGQGGKLWDPSVQWCKEGL [S19W] | 3.38
VPGTQVGQGGKLWDPSVQYCKEGL [S19Y] | 3.76
VPGTQVGQGGKLWDPSVQTCKEGL [S19T] | 4.29
VPGTQVGQGGKLWDPSVQSTKEGL [C20T] | 4.25
VPGTQVGQGGKLWDPSVQSVKEGL [C20V] | 4.36
VPGTQVGQGGKLWDPSVQSAKEGL [C20A] | 4.15
VPGTQVGQGGKLWDPSVQSSKEGL [C20S] | 4.31
VPGTQVGQGGKLWDPSVQSHKEGL [C20H] | 3.6
VPGTQVGQGGKLWDPSVQSMKEGL [C20M] | 4.43
VPGTQVGQGGKLWDPSVQSYKEGL [C20Y] | 3.52
VPGTQVGQGGKLWDPSVQSFKEGL [C20F] | 3.1
VPGTQVGQGGKLWDPSVQSDKEGL [C20D] | 4.59
VPGTQVGQGGKLWDPSVQSWKEGL [C20W] | 3.08
VPGTQVGQGGKLWDPSVQSNKEGL [C20N] | 4.68
VPGTQVGQGGKLWDPSVQSLKEGL [C20L] | 4.05
VPGTQVGQGGKLWDPSVQSQKEGL [C20Q] | 4.6
VPGTQVGQGGKLWDPSVQSGKEGL [C20G] | 4.74
VPGTQVGQGGKLWDPSVQSRKEGL [C20R] | 4.04

Variant | protein stability index
VPGTQVGQGGKLWDPSVQSEKEGL [C20E] | 5.02
VPGTQVGQGGKLWDPSVQSIKEGL [C20I] | 3.79
VPGTQVGQGGKLWDPSVQSPKEGL [C20P] | 4.33
VPGTQVGQGGKLWDPSVQSKKEGL [C20K] | 4.13
VPGTQVGQGGKLWDPSVQSCKEAL [G23A] | 3.89
VPGTQVGQGGKLWDPSVQSCKESL [G23S] | 3.98
VPGTQVGQGGKLWDPSVQSCKEEL [G23E] | 4.4
VPGTQVGQGGKLWDPSVQSCKERL [G23R] | 4.34
VPGTQVGQGGKLWDPSVQSCKECL [G23C] | 3.59
VPGTQVGQGGKLWDPSVQSCKEDL [G23D] | 4.36
VPGTQVGQGGKLWDPSVQSCKEYL [G23Y] | 2.96
VPGTQVGQGGKLWDPSVQSCKEWL [G23W] | 3.12
VPGTQVGQGGKLWDPSVQSCKEHL [G23H] | 3.64
VPGTQVGQGGKLWDPSVQSCKETL [G23T] | 3.96
VPGTQVGQGGKLWDPSVQSCKEKL [G23K] | 4.35
VPGTQVGQGGKLWDPSVQSCKELL [G23L] | 3.62
VPGTQVGQGGKLWDPSVQSCKEQL [G23Q] | 3.51
VPGTQVGQGGKLWDPSVQSCKENL [G23N] | 4.34
VPGTQVGQGGKLWDPSVQSCKEML [G23M] | 3.88
VPGTQVGQGGKLWDPSVQSCKEIL [G23I] | 3.46
VPGTQVGQGGKLWDPSVQSCKEPL [G23P] | 4.32
VPGTQVGQGGKLWDPSVQSCKEVL [G23V] | 4.6
VPGTQVGQGGKLWDPSVQSCKEFL [G23F] | 2.69
VPGTQVGQGGKLWDPSVQSCKDGL [E22D] | 4.25

Variant | protein stability index
VPGTQVGQGGKLWDPSVQSCKPGL [E22P] | 3.46
VPGTQVGQGGKLWDPSVQSCKKGL [E22K] | 4.49
VPGTQVGQGGKLWDPSVQSCKNGL [E22N] | 3.64
VPGTQVGQGGKLWDPSVQSCKFGL [E22F] | 2.58
VPGTQVGQGGKLWDPSVQSCKVGL [E22V] | 3.79
VPGTQVGQGGKLWDPSVQSCKTGL [E22T] | 4.42
VPGTQVGQGGKLWDPSVQSCKAGL [E22A] | 3.06
VPGTQVGQGGKLWDPSVQSCKHGL [E22H] | 3.98
VPGTQVGQGGKLWDPSVQSCKGGL [E22G] | 4.34
VPGTQVGQGGKLWDPSVQSCKMGL [E22M] | 3.13
VPGTQVGQGGKLWDPSVQSCKWGL [E22W] | 1.99
VPGTQVGQGGKLWDPSVQSCKQGL [E22Q] | 3.84
VPGTQVGQGGKLWDPSVQSCKSGL [E22S] | 3.95
VPGTQVGQGGKLWDPSVQSCKRGL [E22R] | 4.05
VPGTQVGQGGKLWDPSVQSCKLGL [E22L] | 2.96
VPGTQVGQGGKLWDPSVQSCKCGL [E22C] | 3.42
VPGTQVGQGGKLWDPSVQSCKIGL [E22I] | 3.23
VPGTQVGQGGKLWDPSVQSCKYGL [E22Y] | 3.07
VPGTQVGQGGKLWDPSVQSCFEGL [K21F] | 3.27
VPGTQVGQGGKLWDPSVQSCSEGL [K21S] | 3.72
VPGTQVGQGGKLWDPSVQSCQEGL [K21Q] | 4.29
VPGTQVGQGGKLWDPSVQSCREGL [K21R] | 4.04
VPGTQVGQGGKLWDPSVQSCTEGL [K21T] | 5.17
VPGTQVGQGGKLWDPSVQSCWEGL [K21W] | 3.52

Variant | protein stability index
VPGTQVGQGGKLWDPSVQSCMEGL [K21M] | 3.92
VPGTQVGQGGKLWDPSVQSCGEGL [K21G] | 3.99
VPGTQVGQGGKLWDPSVQSCLEGL [K21L] | 3.69
VPGTQVGQGGKLWDPSVQSCHEGL [K21H] | 4.05
VPGTQVGQGGKLWDPSVQSCNEGL [K21N] | 4.16
VPGTQVGQGGKLWDPSVQSCCEGL [K21C] | 4.64
VPGTQVGQGGKLWDPSVQSCDEGL [K21D] | 4.79
VPGTQVGQGGKLWDPSVQSCEEGL [K21E] | 4.78
VPGTQVGQGGKLWDPSVQSCVEGL [K21V] | 3.89
VPGTQVGQGGKLWDPSVQSCYEGL [K21Y] | 3.4
VPGTQVGQGGKLWDPSVQSCAEGL [K21A] | 3.91
VPGTQVGQGGKLWDPSVQSCKEGA [L24A] | 4.69
VPGTQVGQGGKLWDPSVQSCKEGM [L24M] | 4.09
VPGTQVGQGGKLWDPSVQSCKEGY [L24Y] | 3.73
VPGTQVGQGGKLWDPSVQSCKEGD [L24D] | 5.51
VPGTQVGQGGKLWDPSVQSCKEGN [L24N] | 4.76
VPGTQVGQGGKLWDPSVQSCKEGK [L24K] | 4.8
VPGTQVGQGGKLWDPSVQSCKEGG [L24G] | 4.49
VPGTQVGQGGKLWDPSVQSCKEGS [L24S] | 4.99
VPGTQVGQGGKLWDPSVQSCKEGP [L24P] | 4.79
VPGTQVGQGGKLWDPSVQSCKEGH [L24H] | 4.27
VPGTQVGQGGKLWDPSVQSCKEGF [L24F] | 4.11
